Assay results from article doi:10.1101/2024.03.17.585388.

Biological target: NTD_GS_CTD (NP NTD and CTD joined by a 14 residue artificial linker, no tails) (SARS-CoV-2)
Experiment: […]

NTD_GS_CTD (NP NTD and CTD joined by a 14 residue artificial linker, no tails) (domain or fragment)
stoichiometry N: 2
